Experimental data from the DeepSol protein solubility set.

Assay: soluble on expression in E. coli; label from the status in PepcDB or PDB records

Sequence | soluble on expression in E. coli
MAHHHHHHMILKEETVLRKTNAENLAAVRNLNLWGEGLTDVSIVSRLPRIEVLALAANKLTTLSPFAACTQLEELYLRRNNVASMLEIKYLRHLPKLHTLWLMDNPCARHPHYRQIVILCCRHLRHLDETEVSEKERAEAEKLLPEGMLQEMLESESAEAAVGTANKAQLQNRTPVSERKQPMGEVVQGGAIHETGAGRERGHRVTSSDTSGRGPSSAPERRQGSADDGLAQTAVQVQRAMFSSIMALVPELAVQTIEALQKELAEELCRRGKRLPPVVRDRT | not soluble
MAHHHHHHMKATKAKSGNTATNAVPFNNAPLKIVFLDCDGVVSPFGGPLFAPRQMKFLADIINGSGAQIVLSSSWRTTDFGRKEVARQLTQFGMPVFIDCTPTLPDKPRSVEILSWIDSNKRKYNIVNFVALDDINLPLSAPDRNFFARHAIVTNATTGLTEANVKQALQMLSDTNNI | soluble
MAHHHHHHMKCELASLIKENAQLGREMRGTPQLRVPQETDVAWRLRRDVLLHSEYPHVAACPEKDVERKDGRAVVVFQESKLQGEPPERTAAQKRSRSDHTAVVSVDPSVLKARASSLGERIVGAAGPSFEPYTAPPSWKMAKVLVGHRGWVWGAAVDPSNSWFATGGGDGVVKVWDLTTGALKLNLTGHKEGVRALSLSTLSPYMFTGSDDHSVKCWDLERNEIIRDFHGHKGSVHCVSTHPSLDIVLSGGRDKTVRVWDVRTRSCVHLLLGHSDSVMSLAVQQEDPQAISGGSDGMVYLWDIASGRAFTRLTRHKKPVRGLALSRQRVLVSCGADNIRVWSLPTGEFLFNASTLDNGKETKKEKEQEPQRWSCCSVSPRNVLAVGSQEGRLLFFDWSHPQQGPYQATKTRSVPGTLPGEGGINGLAFDASGSRLITAESDKSAKVWRTKE | not soluble
MAHHHHHHMKDKLRAMGHPAMDAADREDSHAGCFSDSVGMQTYSLNTSLGAMHIMSRLNNEMSFVEDTASGSFGVVKKGVLDLDRQCYAVKQTKRVISGEGDLQQRLQEVYTLSACSHPNVLRYFDGWVEDRAVFVRTEWLSDGSVADFDRPFSEALLRSVIHQIASALHWLLCHHITHRDVKPENILARKMEDGTYTFKLADFGLARPLFRDRPNTGEEFRGTNDDDGDRRYLSPEAFAISEFSQQKGEADVYALGASCVELMGGDPSLVRNGCYTGNFHIYSAELQNLVQWMTRLDPQERPDAFMVALLTVDPALKSTRGFARRMAAIEGLRASVAELEKKVAETNATEKEEGGA | soluble
MAHHHHHHMKGGKQKFDRAIHKTEGMDGALPNEVLEPLEEVYKPSLRVDVTAEPPEENENSTGTTPVTSVTPHVSTNIFVAGLPPSWDENDLRKKFQEFGEIISTRLVRQRHFAFVMFRRPESAHAAINATHLTHPTPNSSMFLHVSIAMHDEGVDEIPNDRIFIRGLPQWANKDHLRHCFSRFGSIVDSAVLMNPLGQCKGSGFVQFSSIDEATEAIKARKTIRIENWDAELEIKYSETAEVRQQRQERNKNRQRHSPKYGQHQLQYQLFNSSASVVSPIPAFPVLGMSAPFPFFYPRPALSPAASPHIIYSPMVPSPVVPVYPSPPVVFKSKLDLFPSSGDLLFTGVSLTESTLLSLLQCYGKVESKDIFDDAGAAVRMVDRGLHAIIVQQLNGTIFPDGKVMSVVLYP | not soluble
MAHHHHHHMKGVIFCLVVLLWRQAWVSSKSHKCDFTKEKYLLSGEKEVSCEIDANPSDDITFICPNKIDSLCFHTVNISKNINQNKSTMSIQDLLYGSVVYGNTLFISPYVRTNTPFYCFCNLDTVTIQKFLKINRFLKDDDELSEADVMKHLKGGNVSEAQADEYLNKALNRFKKMKDLSKFFNDQADNTTKLNLPKSLNIPNDILNYDVYNSSNNRNDIVVKDEVTNKQIISKRGIMSVFVRSNNNVIKGCDFGNNNKNYFSHPISVAGKVNNKVCKIQGKPGELVGFKCAFEENGKVEPPNCFDQVLHKNKVTDLKTLIPGYASYTNKHSSKYPYYLKIPHFVNEQYTIQCKCKSNNSQNEYTFELDIQPGESEVVLNSFKTS | not soluble
MAHHHHHHMKKPEHVRNIVYEIKRKVQIPVSVKIRTGVDDCDSFPFLRSFIECVSSVGCTHFIVHARKAWLKGLDPKQNRSVPPLQYSKVYTLCQLYPHLKFTLNGGIKTIEEAVALLNGYLPREDKCDGEKTYVQVQNYHVNPLNGVMLGRACMENTTVLSQTDQLVYNEKPPHTAFSRRTVLDAYKSYLEENSSLCSLSSAFELLKPILGILKGMPGHRIFRNKVDMYIRNYSSTLPCSGILEKAMVDVDAVAPGCLDLPLADYKLQQEYIKNY | not soluble
MAHHHHHHMKLLLQADTPGGAAEREANPKYLSTDTLIIVPGHGVLNAPNASEWKNESEWCLEPHQLRAGVVLPLCFASHIRRGLEILRDQINTSILIFSGGQTCGIAGPRSEALGYYIVAKESKLFGIFEPEYVAKDIMNGRIFTEEFARDSYENLLFSIARFYEVTGHFPGSVVVVGWKHKAERFTMYHREAIRFPADKFTYVGLDFADAEPFVEDLQPYQVAKPYTDENALSSVSKDMYLCDAGRRTRSKRNPYFRVPPYLVSCPPLRQLLQHCGPELIDTRRVPWK | not soluble
MAHHHHHHMKLMLKKKKKGRKRKRSYYKEIESLFWTAEDYNFDKDKQYLENIDKNMLVKLFELICFYSLKDLHVYEEQALITSKMLDIIQIPEGRAFYGFQMCMENIHDEVYACIFETYIPDSKQKRVIINKVIELDSVLKKQKWLTEIFESNIPYYNKLVLLYISKVLFNGTLNILIGYCKENSILPCLCNVHEKIHRDEYLHGDFSVMCCNHLVNKLKYEHVLDYFKMAVDLEYQFSLEMLELNVLKIKKEQVRAFLEYLTDTMLTNLKYPKHYNSKYPFSWPEFTKIIVNENGKEETVKKGENVYGEKQILFDEDF | not soluble
MAHHHHHHMKLQKQQQQKRMTGLKEKRIACRLTYIWLSGRDSHHDIRSKDRTAYLTTEEVAKHPKELLADGIFPVWNFDGSSTKQVCGADTEILLNPVNAYHCCLPRLSTTVPWILVLAECCLPNGEPTNDNSRAVARRIFERAPEEHPWFGMEQEFFLIKDGHPYGWPPRGFPAPQGPYYCSTGCLCVHGRRYVDLHYEVCLQMGLNISGTNAEVAPGQWEFQVGPCEGIEMGDQLTVARWVLLRILEDDGLDADYRAKPIRGEWNGSGLHTNFSTASTRNENGLSVIYEYVERLKKTISKDIVLYGAENNERLTGKYETSKPNEVTAGVGTRGTSIRIPNAVAAERKGYMEDRRPAGDADPYLVSARLFASCVCIESPELDLISSFHERSWMKFGDLS | soluble
MAHHHHHHMKQSDFIFFVLRFWHFVPPYIIEKYAVSAFLNEDFLRAIRLKIEELRPPGRREPHSCVLKEHSDTSFTRKEVLPPPERLSNPVAMDHWVLYEPKVQNFPLVDGFFLVDSNPMTLVGLRMTTAGEHRTTTSTVRQFTECLAAYFNGWEELSRDMSWEIINVQHADSTPINDWQRCDVVDSDNVSRAENREIAAFWEEEVRQYIAAVSSGDF | not soluble
MAHHHHHHMKRIVAPRRWSAINRVEHPPLMPKQLLQSVCGGLRWLESKSLAEFLAKRAIEEGFPCTKKQQRIFDARPPSSRPALRKSRLHKKCPARRSGGDVQRTEGSLEAPRTTGASGALVSSGAALALNSSAFDALVPLAKRKRLVSYDVLDCTFGSGFHTGVVLENGRPYTRVVAMDCDVEATVSAREIVDEFGADRFRFYARPMSEAKAMFGERSFDAVMIDPGPSSTQLENPERGFLLNDESDHALDMRYGPTHGLGALEYLNTVPQHALSGALASYELLTPQQSMKLARAIRQRRPFDGAQRVLEAVEEAGNELPEEGWGTQGSRRKTSMSWNFMTSLRCIVNHERHELSEALQNALLLLRTDGRLVVFSRLPWEEKLISTTISQHPHALLSYSEAIPIEDVQEHGHSRHTKMWIVTRTQGSSYVLKNSQTLTGEAVQESSMRWMSGLFAGQTFGFPANNFTFENKDGKDWAAVRRNKNSPPFDSDDDPRG | not soluble
